Results taken from US20240400690A1 (BIO THERA SOLUTIONS, published 2024).
Numbering of substitutions follows the chain as printed.

T1: B7-H3 on tumour cells (MDA-MB-468 cells, N87 cells) (UniProt Q5ZPR3 29-534, limits assumed)
T1 construct: whole, on cells
T1 sequence (looked up): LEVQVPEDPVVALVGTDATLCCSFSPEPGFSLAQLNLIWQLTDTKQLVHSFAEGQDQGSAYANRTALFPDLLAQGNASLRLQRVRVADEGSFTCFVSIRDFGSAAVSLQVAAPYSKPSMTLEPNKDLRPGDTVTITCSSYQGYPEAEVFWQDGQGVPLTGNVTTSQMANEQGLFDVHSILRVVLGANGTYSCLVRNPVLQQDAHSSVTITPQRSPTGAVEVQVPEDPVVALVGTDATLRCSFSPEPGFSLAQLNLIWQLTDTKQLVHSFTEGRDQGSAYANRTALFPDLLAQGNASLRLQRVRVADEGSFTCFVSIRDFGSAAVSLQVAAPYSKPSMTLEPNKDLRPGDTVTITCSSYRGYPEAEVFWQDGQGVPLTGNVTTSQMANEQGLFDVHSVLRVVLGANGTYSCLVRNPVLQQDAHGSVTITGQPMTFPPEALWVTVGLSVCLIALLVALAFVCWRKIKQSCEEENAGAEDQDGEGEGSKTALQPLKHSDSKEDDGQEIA

T2: mouse B7-H3 (SinoBiological, 50973-M08H) (mouse, UniProt Q8VE98 29-244)
T2 construct: Bought reagent
T2 sequence (looked up): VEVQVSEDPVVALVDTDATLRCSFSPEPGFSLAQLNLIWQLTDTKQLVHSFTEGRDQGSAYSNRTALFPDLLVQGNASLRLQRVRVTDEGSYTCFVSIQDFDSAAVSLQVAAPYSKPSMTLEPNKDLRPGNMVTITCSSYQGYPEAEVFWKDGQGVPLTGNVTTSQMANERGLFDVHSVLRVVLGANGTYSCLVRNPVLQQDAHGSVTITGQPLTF

T3: Lag3 (on Lag3-CHO cells) (UniProt P18627 23-525, limits assumed)
T3 construct: whole, on cells
T3 sequence (looked up): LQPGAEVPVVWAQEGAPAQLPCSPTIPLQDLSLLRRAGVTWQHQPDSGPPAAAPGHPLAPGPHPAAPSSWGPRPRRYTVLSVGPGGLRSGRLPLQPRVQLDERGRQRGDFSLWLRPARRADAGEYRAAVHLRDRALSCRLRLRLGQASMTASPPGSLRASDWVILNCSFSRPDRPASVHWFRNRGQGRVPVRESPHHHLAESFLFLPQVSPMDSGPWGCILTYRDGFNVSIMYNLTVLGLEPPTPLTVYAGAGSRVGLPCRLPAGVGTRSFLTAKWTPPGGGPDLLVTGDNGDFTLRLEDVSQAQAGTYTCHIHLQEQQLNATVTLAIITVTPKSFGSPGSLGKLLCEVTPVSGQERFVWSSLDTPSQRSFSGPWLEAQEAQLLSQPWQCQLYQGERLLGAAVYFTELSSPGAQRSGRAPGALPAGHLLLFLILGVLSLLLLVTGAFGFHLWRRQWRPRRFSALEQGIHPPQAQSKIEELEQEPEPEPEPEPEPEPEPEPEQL

T4: VISTA (on VISTA-CHO cells) (UniProt Q9H7M9 33-311, limits assumed)
T4 construct: whole, on cells
T4 sequence (looked up): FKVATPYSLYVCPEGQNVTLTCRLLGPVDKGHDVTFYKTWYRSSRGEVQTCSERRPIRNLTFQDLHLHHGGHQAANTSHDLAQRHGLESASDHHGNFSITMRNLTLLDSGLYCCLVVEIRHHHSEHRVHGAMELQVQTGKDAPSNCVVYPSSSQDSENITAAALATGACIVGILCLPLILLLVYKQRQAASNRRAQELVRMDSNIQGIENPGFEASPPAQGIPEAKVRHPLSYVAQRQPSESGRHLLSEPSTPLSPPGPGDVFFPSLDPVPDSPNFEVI

T5: Tim3 (on Tim3-CHO cells) (UniProt Q8TDQ0 22-301, limits assumed)
T5 construct: whole, on cells
T5 sequence (looked up): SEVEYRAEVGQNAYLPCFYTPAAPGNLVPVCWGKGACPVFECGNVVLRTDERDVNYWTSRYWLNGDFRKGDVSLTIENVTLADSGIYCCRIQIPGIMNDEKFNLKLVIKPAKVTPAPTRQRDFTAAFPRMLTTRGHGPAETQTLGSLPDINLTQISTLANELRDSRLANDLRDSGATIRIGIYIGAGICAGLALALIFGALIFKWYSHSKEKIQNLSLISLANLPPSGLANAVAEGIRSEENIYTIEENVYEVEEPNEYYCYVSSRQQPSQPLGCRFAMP

B1: antibody V2 (antibody, human IgG1, kappa, V domains shown)
VH: EVQLVQSGAEVKKSGESLKISCKASGYTFTDYDINWVRQMPGKGLEWIGWIFPGDDTTKYNEKFKGQVTLSADKSTNTAYMQWSSLKASDTAMYYCARSPSFDYWGQGTLVTVSS
VL: QIVLTQSPGTLSLSPGERATLSCSASSTIGFMYWYQQKPGQAPRRWIYDTSKLASGVPDRFSVSGSGTDYTLTISRLEPEDFAVYYCHQRSSYPTFGQGTKVEIKR
notes: Humanized from chimeric antibody M1; expressed in HEK293F cells; also called humanized antibody V2
B2: antibody V3 (antibody, human IgG1, kappa, V domains shown)
VH: B1 VH
VL: B1 VL with V63G
notes: Humanized from chimeric antibody M1; expressed in HEK293F cells; also called humanized antibody V3
B3: antibody V1 (antibody, human IgG1, kappa, V domains shown)
VH: B1 VH with I48M, L70I, M81L
VL: B1 VL
notes: Humanized from chimeric antibody M1; expressed in HEK293F cells; also called humanized antibody V1
B4: control antibody M30-H1-L4 (antibody, human IgG1, kappa, V domains shown)
VH: QVQLVQSGAEVKKPGSSVKVSCKASGYTFTNYVMHWVRQAPGQGLEWMGYINPYNDDVKYNEKFKGRVTITADESTSTAYMELSSLRSEDTAVYYCARWGYYGSPLYYFDYWGQGTLVTVSS
VL: EIVLTQSPATLSLSPGERATLSCRASSRLIYMHWYQQKPGQAPRPLIYATSNLASGIPARFSGSGSGTDFTLTISSLEPEDFAVYYCQQWNSNPPTFGQGTKVEIKR
notes: Control anti-B7-H3 antibody; also called HIL4
B5: antibody M1 (antibody, human IgG1, kappa, V domains shown)
VH: QVQLQQSGPELVKPGASVRISCKASGYTFTDYDINWVQQRPGQGLEWIGWIFPGDDTTKYNEKFKGRATLTADKSSNTAYMQLNGLTSENSAVYFCARSPSFDYWGQGTLVTVSS
VL: QIVLTQSPAIMSASPGERVTMTCSASSTIGFMYWYQQKPGTSPKRWIYDTSKLASGVPARFSVSGSGTSYSLTISSMEAEDAATYYCHQRSSYPTFGGGTKLEIKR
notes: Chimeric antibody, murine variable regions on the IgG1 constant region; expressed in HEK293F cells; also called chimeric antibody M1
B6: antibody V5 (antibody, human IgG1, kappa, V domains shown)
VH: QVQLVQSGAEVKKPGASVKVSCKASGYTFTDYDINWVRQAPGQRLEWIGWIFPGDDTTKYNEKFKGRATLTADKSASTAYMELSSLRSEDTAVYYCARSPSFDYWGQGTLVTVSS
VL: QIVLTQSPSSLSASVGDRVTITCSASSTIGFMYWYQQKPGKAPKRWIYDTSKLASGVPSRFSVSGSGTDYTLTISSLQPEDFATYYCHQRSSYPTFGQGTKVEIKR
notes: Humanized from chimeric antibody M1; expressed in HEK293F cells; also called humanized antibody V5

Molecular target: T1, B7-H3 on tumour cells (MDA-MB-468 …)
Test: flow cytometry on MDA-MB-468 cells, PE goat anti-human IgG Fc secondary; blank 0.9% in the positive gate
Procedure: MDA-MB-468 cells in logarithmic phase were collected and centrifuged at 1500 rpm for 5 min, and the supernatant was removed. The cells were resuspended in 1×PBS and centrifuged at 1500 rpm for 5 min, and the supernatant was removed, and then the procedure was repeated once. MDA-MB-468 cells were added to a V-bottom 96-well plate at 50 μL/well (200,000 cells) and centrifuged at 1500 rpm for 5 min, and PBS was discarded; the humanized antibody diluted in gradient (initial concentration of 100 nM, 3-fold gradient dilution, 1×PBS as the vehicle) was added at 100 μL/well; the cells were resuspended, and incubated on ice for 1 h; after the incubation was completed, the cells were centrifuged at 2000 rpm for 5 min, and the supernatant was removed; the cells were resuspended in 1×PBS added at 200 µL/well and centrifuged again and the supernatant was removed, and the procedure was repeated twice; a PE-labeled goat anti-human IgG Fc secondary antibody (Invitrogen, cat #12-4998-82, diluted with 1×PBS at 1:500) was added at 100 μL/well; the cells were resuspended, and incubated for 30 min on ice in the absence of light; after the incubation was completed, the cells were centrifuged at 2000 rpm for 5 min, and the supernatant was removed; the cells were resuspended in 1×PBS added at 200 μL/well and centrifuged again and the supernatant was removed, and the procedure was repeated twice; 1×PBS was then added at 200 μL/well to resuspend the cells; the detection was performed with a cytoflex flow cytometer (Beckman).

Going from B1 to B2, the “% of cells in positive gate V1-R at 0.411 nM” value (shortened to “% of cells … at 0.411 nM”) rises from 1.2% to 36.8%.

First: B3
Second: B4
The “% of cells … at 0.411 nM” value of the first is higher: 1.4% for the first, 1.1% for the second.

Compared with B5, B6 is higher in “% of cells … at 0.411 nM” value: 26.5% for the first, 31.6% for the second.

Compared with B1, B2 is higher in “% of cells in positive gate V1-R at 1.23 nM” value (from here on “% of cells … at 1.23 nM”): 1.3% for the first, 86.4% for the second.

Compared with B3, B4 is lower in “% of cells … at 1.23 nM” value: 8.6% for the first, 4% for the second.

First: B5
Second: B6
The “% of cells … at 1.23 nM” value of the first is higher: 93.1% for the first, 73.5% for the second.

Going from B1 to B2, the “% of cells in positive gate V1-R at 11.11 nM” value (“% of cells … at 11.11 nM” below) falls from 97.8% to 97.2%.

Going from B3 to B4, the “% of cells … at 11.11 nM” value falls from 99.5% to 97.2%.

First: B5
Second: B6
The “% of cells … at 11.11 nM” value of the first is higher: 99.5% for the first, 99.3% for the second.

Going from B1 to B2, the “% of cells in positive gate V1-R at 33.33 nM” value (“% of cells … at 33.33 nM” below) falls from 99.7% to 98.9%.

First: B3
Second: B4
The “% of cells … at 33.33 nM” value of the first is higher: 99.6% for the first, 98.8% for the second.

Compared with B5, B6 is lower in “% of cells … at 33.33 nM” value: 99.7% for the first, 99.6% for the second.

Going from B2 to B3, the “% of cells in positive gate V1-R at 3.7 nM” value falls from 94% to 92.7%.

Going from B5 to B6, the “% of cells in positive gate V1-R at 3.7 nM” value falls from 98.7% to 92.6%.

Going from B2 to B3, the “% of cells in positive gate V1-R at 100 nM” value rises from 99.6% to 99.7%.

Going from B4 to B5, the “% of cells in positive gate V1-R at 100 nM” value rises from 99.3% to 99.7%.

B6 was tested, and the “% of cells in positive gate V1-R at 100 nM” value was 99.7%.

Molecular target: T2, mouse B7-H3 (SinoBiological, 50973-M08H)
Test: ELISA, antigen coated at 2 µg/mL; Table 13 prints EC50 as NA
Procedure: The day before the experiment, the target antigens cynomolgus monkey B7-H3 (novoprotein CA61), mouse B7-H3 (SinoBiological, 50973-M08H) and hB7-H3-his were each diluted to 2 μg/mL with 1×PBS and added to a ELISA plate (96-well plate) at 100 μL/well (two rows for each antigen), and the wells were coated overnight at 4° C.

B2: no binding.

Molecular target: T3, Lag3 (on Lag3-CHO cells)
Test: flow cytometry on Lag3-CHO cells, PE goat anti-human IgG Fc secondary; blank 0.5% in P3
Procedure: (§1) Cells (VISTA-CHO cells, Tim3-CHO cells or Lag3-CHO cells) in logarithmic phase were collected and centrifuged at 1500 rpm for 5 min, and the supernatant was removed. The cells were resuspended in 1×PBS and centrifuged at 1500 rpm for 5 min, and the supernatant was removed, and then the procedure was repeated once. […]

Compared with B4, B5 is higher in “% of cells in gate P3 at 100 nM” value: 0.3% for the first, 0.9% for the second.

Molecular target: T4, VISTA (on VISTA-CHO cells)
Test: flow cytometry on VISTA-CHO cells, PE goat anti-human IgG Fc secondary; blank 0.1% in P3
Procedure: as §1

First: B4
Second: B5
The “% of cells in gate P3 at 100 nM” value of the first is lower: 0.2% for the first, 0.6% for the second.

Molecular target: T5, Tim3 (on Tim3-CHO cells)
Test: flow cytometry on Tim3-CHO cells, PE goat anti-human IgG Fc secondary; blank 0.2% in P3
Procedure: as §1

Going from B4 to B5, the “% of cells in gate P3 at 100 nM” value rises from 0.4% to 0.8%.
